Results on four molecules are retold here after patent US20140044730A1 (Regeneron, published 2014).

Changes are numbered by the printed parent chain. Read-outs that look alike come from different tables or passages of the source.

Test [1] addresses T1, human PCSK9 with a C-terminal myc-myc-hexahistidine tag (human, UniProt Q8NBP7 31-692, limits assumed).
T1 construct: also called hPCSK9-mmH; hPCSK9-mmh; not shown: C-terminal myc-myc-hexahistidine tag
Put plainly: SPR (Biacore), 37 °C; antibody captured on anti-human Fc surface, hPCSK9-mmH injected (3.125-50 nM); association at pH 7.4, dissociation at pH 6.0.

Test [2] addresses T1, human PCSK9 with a C-terminal …. In words: blocking ELISA pH 7.2; actual obtained value, below theoretical bottom of the assay. (An ELISA detects its analyte on a solid surface through an enzyme-linked reagent.)
Description: (§1) Briefly, hLDLR EGFA-hFc was coated at 2 μg/mL in PBS on a 96-well microtiter plate overnight at 4° C. followed by blocking with a solution of 0.5% (w/v) BSA in PBS.
(§2) The equilibrated sample solutions were then transferred to a LDLR EGFA-hFc coated plate.
Test [3] shares this target. In words: blocking ELISA pH 5.75; actual obtained value, below theoretical bottom of the assay.
Description: as §1, §2
For test [4] the target is unchanged. In words: cell-based or functional assay.
For test [5], the target named is T2, recombinant cynomolgus monkey PCSK9 with a C-terminal myc-myc hexahistidine tag (cynomolgus monkey, UniProt A8T662 31-692 (Macaca nemestrina entry), limits assumed). In words: cell-based or functional assay.
In test [6] the target is T3, human PCSK9 with a C-terminal myc-myc hexahistidine tag and a D374Y mutation (human, UniProt Q8NBP7 31-692, limits assumed). In words: cell-based or functional assay.
Test [7] concerns the target T1, human PCSK9 with a C-terminal …. Put plainly: SPR 25C pH 6.0, purified mAb captured.
Description: (§3) A Biacore CM4 sensor chip was derivatized with a monoclonal mouse anti-human Fc antibody to capture human antibodies. The histidine substitution variant anti-PCSK9 antibodies were captured onto the anti-human Fc sensor surface from culture medium after transient expression in Chinese hamster ovary (CHO) cells. […] Kinetic association (kₐ) and dissociation (kd) rate constants were determined by processing and fitting the data to a 1:1 binding model using Scrubber 2.0 curve fitting software. Binding dissociation equilibrium constants (KD) and dissociative half-lives (t_{1/2}) were calculated from the kinetic rate constants as: KD (M)=kd/kₐ; and t_{1/2} (min)=(In2/(60*kd).
(§4) Also included in these experiments were several control/comparator antibodies. All measurements were taken at 25° C.
Test [8] shares this target. In words: blocking ELISA pH 7.2, 500 pM hPCSK9-mmH vs coated hLDLR EGFA-hFc.
Description: as §1, §2
For test [9] the target is unchanged. In words: cell-based or functional assay. The source holds these as a separate data set.
Test [10] shares this target. In words: blocking ELISA pH 5.75, 500 pM hPCSK9-mmH vs coated hLDLR EGFA-hFc.
Description: as §1, §2
Test [11] has the same target. Put plainly: SPR (Biacore), 37 °C; antibody captured on anti-human Fc surface, hPCSK9-mmH injected (3.125-50 nM); association at pH 7.4, dissociation at pH 7.2.
Description: (§5) A Biacore CM4 sensor chip was derivatized with a Fab′2 polyclonal anti-human Fc antibody to capture human antibodies. […] Dissociation (kd) rate constants were determined by processing and fitting the data using Scrubber version 2.0 curve fitting software. Dissociative half-lives (t_{1/2}) were calculated from the dissociation rate constants as: t_{1/2} (min)=(In2/kd)/60.
For test [12] the target is unchanged. Put plainly: SPR (Biacore), 37 °C; antibody captured on anti-human Fc surface, hPCSK9-mmH injected (3.125-50 nM); association at pH 7.4, dissociation at pH 7.4.
Description: as §5
Test [13] shares this target. Put plainly: SPR (Biacore), 37 °C; antibody captured on anti-human Fc surface, hPCSK9-mmH injected (3.125-50 nM); association at pH 7.4, dissociation at pH 5.75. A general note: Surface plasmon resonance follows binding to a sensor surface in real time, without labels.
Description: as §5
Test [14] has the same target. In words: SPR 25C, purified mAb captured.
Description: as §3, §4
Test [15] shares this target. In words: SPR 25C pH 7.4, purified mAb captured.
Description: as §3
All measurements were taken at 25° C.
Test [16] has the same target. In words: blocking ELISA, hPCSK9-mmH vs coated hLDLR EGFA-hFc.
Description: as §1, §2
The target is the same in test [17]. In words: SPR (Biacore), 37 °C; antibody captured on anti-human Fc surface, hPCSK9-mmH injected (3.125-50 nM); association at pH 7.4, dissociation at pH 7.2. The source holds these as a separate data set.
Description: as §5
For test [18] the target is unchanged. In words: SPR (Biacore), 37 °C; antibody captured on anti-human Fc surface, hPCSK9-mmH injected (3.125-50 nM); association at pH 7.4, dissociation at pH 6.0. The source holds these as a separate data set.
Description: (§6) All experiments were carried out at 37° C.
as §5
Test [19] has the same target. In words: SPR (Biacore), 37 °C; antibody captured on anti-human Fc surface, hPCSK9-mmH injected (3.125-50 nM); association at pH 7.4, dissociation at pH 5.75. The source holds these as a separate data set.
Description: as §6, §5
For test [20] the target is unchanged. In words: blocking ELISA pH 7.2, 500 pM hPCSK9-mmH vs coated hLDLR EGFA-hFc, exp #1.
Excerpt: (§7) The equilibrated sample solutions were then transferred to the LDLR EGFA-hFc coated plate prepared as described above.
The target is the same in test [21]. In words: SPR 25C, mAb captured.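 Further: biacore CM4 surface bearing anti-human Fc antibody capturing the mAbs, PCSK9 binding and release rates fitted with a one-to-one model, KD and half-life derived from those rates.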
Description: as §3
The target is the same in test [22]. In words: SPR 25C pH 5.75, mAb captured.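 Further: biacore surface with anti-human Fc antibody capturing the antibodies, PCSK9 as analyte, one-to-one kinetic fit, KD as kd over ka, half-life derived from kd.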
Description: as §3
The target is the same in test [23]. In words: SPR (Biacore), 37 °C; antibody captured on anti-human Fc surface, hPCSK9-mmH injected (3.125-50 nM); association at pH 7.4, dissociation at pH 7.4. This is another data set of the same source.
Description: as §6, §5
The target in test [24] is T2, recombinant cynomolgus monkey PCSK9 …. Put plainly: cell-based or functional assay. The source holds these as a separate data set.
In test [25] the target is T3, human PCSK9 with a C-terminal myc-myc …. In words: cell-based or functional assay. This is another data set of the same source.
Test [26] has as its target T1, human PCSK9 with a C-terminal …. Put plainly: SPR 25C pH 7.2, mAb captured; pH 7.2, 25 C.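 Further: biacore SPR, antibodies captured on anti-human Fc CM4 chip with PCSK9 flowed as analyte, rate constants from a one-to-one kinetic fit, KD and half-life derived from them.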
Description: as §3
Test [27] shares this target. In words: SPR 25C pH 7.2, mAb captured.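 Further: biacore SPR, antibodies captured on anti-human Fc CM4 chip with PCSK9 flowed as analyte, rate constants from a one-to-one kinetic fit, KD and half-life derived from them.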
Test [28] has the same target. In words: blocking ELISA pH 7.2, 500 pM hPCSK9-mmH vs coated hLDLR EGFA-hFc, exp #2.
Excerpt: as §7
Test [29] shares this target. Put plainly: SPR 25C pH 7.2, mAb captured; pH 7.2 (neutral), 25 C.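 Further: biacore SPR, antibodies captured on anti-human Fc CM4 chip with PCSK9 flowed as analyte, rate constants from a one-to-one kinetic fit, KD and half-life derived from them.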
Description: as §3

B1: 316P(v1) (antibody, IgG1, V domains shown)
VH: EVQLVESGGGLVQPGGSLRLSCAASGFTFNNYAMNWVRQAPGKGLDWVSTISGSGGTTNYADSVKGRFIISRDSSKHTLYLQMNSLRAEDTAVYYCAKDSNWGNFDLWGRGTLVTVSS
VL: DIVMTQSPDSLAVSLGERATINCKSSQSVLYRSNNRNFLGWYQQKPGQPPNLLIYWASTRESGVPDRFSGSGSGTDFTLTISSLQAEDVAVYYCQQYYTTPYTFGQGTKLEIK
notes: also called 316(v1)
The IC50 is the concentration that gives 50% inhibition. Broadly, the Kd is the concentration at which binding is half-saturated. As usually defined, the koff is a measure of how fast the partners let go of each other. By kon is commonly meant the rate constant with which the complex forms. Usually t½ stands for how long it takes for the measured level to halve. Consider B1, for which the “t½ (dissociative half-life)” value in [1] stood at 13 min; in [11], 13.8 min; in test [12] it was 7 min; in test [13], 27.8 min. For the same molecule, the IC50 was 0.064 nM in test [2], 0.113 nM in test [3], less than 0.125 nM in [8] and less than 0.125 nM in [10]. Also, the “IC50, LDL uptake in HepG2 cells, 50 nM hPCSK9-mmH” value in test [4] came out at 7.8 nM. Moreover, the “IC50, LDL uptake in HepG2 cells, 50 nM MfPCSK9-mmH” value (“IC50 … 50 nM MfPCSK9-mmH” below) in test [5] is 10.3 nM. For the same molecule, the “IC50, LDL uptake in HepG2 cells, 2 nM hPCSK9-D374Y-mmH” value (“IC50 … 2 nM hPCSK9-D374Y-mmH” below) in [6] was determined as 2 nM. The equilibrium dissociation constant (Kd) in test [7] was found to be 0.25 nM; in [15] it was 0.616 nM. Moreover, the koff in test [7] stood at 0.000162 s⁻¹; in test [15], 0.000308 s⁻¹. In addition, the kon in test [7] is 649000 M⁻¹ s⁻¹; in [15], 499000 M⁻¹ s⁻¹. The figures for the t½ in [7] and in test [15] were 71.1 min and 37.6 min, respectively. Also, the “IC50, LDL uptake in HepG2 cells, 100 nM hPCSK9-mmH” value (“IC50 … 100 nM hPCSK9-mmH” below) in test [9] was 31 nM. For the same molecule, the “KD ratio pH 6.0/pH 7.4” value in test [14] was found to be 0.41. For the same molecule, the “ka ratio pH 6.0/pH 7.4” value in test [14] worked out at 1.3. The “kd ratio pH 6.0/pH 7.4” value in [14] was determined as 0.53. In addition, the “t½ ratio pH 6.0/pH 7.4” value in [14] is 1.89. Further, the “IC50 ratio (pH 5.75/pH 7.2)” value in [16] was 1.8.

B2: VH-D106H (antibody, V domains shown)
VH: EMQLVESGGGLVQPGGSLRLSCAASGFTFSSHWMKWVRQAPGKGLEWVANINQDGSEKYYVDSVKGRFTISRDNAKNSLFLQMNSLRAEDTAVYYCARDIVLMVYHMDYYYYGMDVWGQGTTVTVSS
VL: not shown
notes: His variant of 300N
Consider B2, for which the dissociation constant (Kd) in [7] was determined as 7.04 nM; in test [22], 9.59 nM; in [26], 2.21 nM; in test [15] it was 1.06 nM. Further, the koff in [7] is 0.00075 s⁻¹; in test [15] it was 8.98e-05 s⁻¹. The kon in test [7] amounted to 107000 M⁻¹ s⁻¹; in test [15], 84700 M⁻¹ s⁻¹. Moreover, the t½ in test [7] came to 15.4 min; in [22], 3.4 min; in test [27], 35 min; in [15], 129 min. The “t½ (dissociative half-life)” value in test [17] was determined as 42 min; in test [18], 3.5 min; in [19] it was 2.8 min; in test [23] it was 36 min. Also, the IC50 in [8] came to 0.319 nM; in test [20], 0.349 nM; in test [10] it was 1.75 nM; in test [28], 0.395 nM. Besides, the “IC50 … 100 nM hPCSK9-mmH” value in test [9] is 32 nM. For the same molecule, the “KD ratio pH 5.75/pH 7.2” value in test [21] was found to be 4.34. In test [21], the “t½ ratio pH 5.75/pH 7.2” value worked out at 0.1. Besides, the “IC50 … 50 nM MfPCSK9-mmH” value in test [24] was 12.7 nM. The “IC50 … 2 nM hPCSK9-D374Y-mmH” value in [25] is 2.7 nM. For the same molecule, the “KD ratio pH 6.0/pH 7.4” value in test [14] turned out to be 6.64. Also, the “ka ratio pH 6.0/pH 7.4” value in test [14] was found to be 1.26. The “kd ratio pH 6.0/pH 7.4” value in [14] was 8.35. For the same molecule, in test [14], the “t½ ratio pH 6.0/pH 7.4” value was determined as 0.12. Moreover, the “IC50 ratio (pH 5.75/pH 7.2)” value in test [16] was 5.5.

B3: 300N(v2) (antibody, IgG4, V domains shown)
VH: B2 VH with H106D
VL: not shown
Consider B3, for which the “t½ (dissociative half-life)” value in test [1] worked out at 7.1 min. For the same molecule, the “IC50, LDL uptake in HepG2 cells, 50 nM hPCSK9-mmH” value in test [4] is 10.3 nM. In addition, the “IC50 … 50 nM MfPCSK9-mmH” value in test [5] is 15.7 nM. In addition, the “IC50 … 2 nM hPCSK9-D374Y-mmH” value in [6] was 2 nM. Moreover, in [7], the Kd was determined as 1.14 nM, the koff was found to be 0.000313 s⁻¹, the kon was found to be 274000 M⁻¹ s⁻¹ and the t½ came to 36.9 min. In test [8], this molecule yielded an IC50 of 0.221 nM. Also, the “IC50 … 100 nM hPCSK9-mmH” value in test [9] was determined as 32 nM. This molecule also gave an IC50 in [10] of 0.268 nM. Besides, the “t½ (dissociative half-life)” value in [11] worked out at 46.2 min. In addition, the “t½ (dissociative half-life)” value in [12] amounted to 34.6 min. In [13], the “t½ (dissociative half-life)” value is 7 min. Moreover, in [14], the “KD ratio pH 6.0/pH 7.4” value turned out to be 2.09, the “ka ratio pH 6.0/pH 7.4” value came out at 1.89, the “kd ratio pH 6.0/pH 7.4” value is 3.94 and the “t½ ratio pH 6.0/pH 7.4” value came out at 0.25. In test [15], the Kd is 0.546 nM, the koff was 7.93e-05 s⁻¹, the kon came to 145000 M⁻¹ s⁻¹ and the t½ was 146 min. In addition, the “IC50 ratio (pH 5.75/pH 7.2)” value in test [16] was 1.2.

B4: VH-M114H (antibody, V domains shown)
VH: B2 VH with H106D, M114H
VL: not shown
notes: His variant of 300N
Turning to B4, in test [29], binding was characterised by a dissociation constant (Kd) of 386 nM and the t½ is 0 h.
